Data from patent US9469685 (UNIVERSITY OF CHICAGO, dated 2016).

Molecular target: HA of the 1918 pandemic strain, A/Brevig Mission/1/1918 (H1N1) (influenza A virus A/Brevig …, UniProt Q9WFX3 18-529)
Test: ELISA (FIG. 3B, FIG. 8A)

HA of the 1918 pandemic strain, A/Brevig Mission/1/1918 (H1N1), sequence (Q9WFX3 18-529 limits assumed): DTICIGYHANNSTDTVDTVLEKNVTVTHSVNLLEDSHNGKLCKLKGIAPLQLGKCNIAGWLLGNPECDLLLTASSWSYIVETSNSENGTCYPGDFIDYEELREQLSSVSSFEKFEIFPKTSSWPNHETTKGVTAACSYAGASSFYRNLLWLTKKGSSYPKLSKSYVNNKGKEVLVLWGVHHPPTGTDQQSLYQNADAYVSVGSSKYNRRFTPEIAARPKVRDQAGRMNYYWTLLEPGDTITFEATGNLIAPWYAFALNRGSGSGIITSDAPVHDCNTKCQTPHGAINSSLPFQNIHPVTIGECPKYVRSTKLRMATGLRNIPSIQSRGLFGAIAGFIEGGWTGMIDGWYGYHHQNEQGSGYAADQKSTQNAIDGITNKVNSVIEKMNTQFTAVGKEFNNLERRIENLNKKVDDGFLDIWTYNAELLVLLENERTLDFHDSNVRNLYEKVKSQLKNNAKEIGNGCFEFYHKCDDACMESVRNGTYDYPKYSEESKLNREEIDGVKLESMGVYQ

B1: 70-5B03 (antibody, V domains shown)
VH: QVQLVQSGAEVKKPGSSVKVSCKASGGTFRNFAVSWVRQAPGQGPEWMGGIIAIFGTAKYAQKFQGRVTISADESTRIVQMELSSLRSDDTAIYYCASSSGSYYGDYFDYWGQGTLVTVSS
VL: EIVMTQSPATLSVSPGERATLSCRASQSVSSNLAWYQQTPGQAPRLLIYAASSRATGIPARFSGSGSGTEFTLSISSLQPEDFAVYYCQQYNNWPRTFGQGTKVEIK
  binding result: binds
